Numbering of substitutions follows the chain as printed.
Tests used:
[1] = biological target: T1, cynomolgus macaque CD8αα homodimer, recombinant protein (cynomolgus macaque); assay: BLI kinetic sensorgram, 1:1 global fit (legend: 30 °C; FIG. 2I prints 37 °C for the same constants)
T1 construct: also called cynomolgus CD8αα homodimer
Protocol: (§1) Biolayer interferometry kinetic assays were performed using a GatorBio Gator Plus BLI system. Kinetic buffer containing PBS plus 0.1% Tween 20 and 0.2% BSA was used for calculating the baseline. To measure the binding kinetics of anti-CD8α antibody fragment (Fab), streptavidin-immobilized SA-XT sensors (#160029, Gator Bio) were prehydrated in the kinetic buffer and loaded with […] biotinylated CD8α recombinant protein (CDA-H82E3, Acro Biosystems) at a spin speed of 400 rpm to a threshold response of 10 nm. The sensors were then incubated in the kinetic buffer for 300 s to acquire a baseline measurement prior to each association. […] The antigen-loaded sensors were incubated in the diluted solutions to capture Fab fragments for 300 s to record the association phase. Sensors were finally incubated in the kinetic buffer for 900 s to record the dissociation phase. The spin speed for all steps except the antigen loading step was 1000 rpm. The temperature of the performed assays was either 30° C. or 37° C. during the association and dissociation phases. Sensor data were baseline subtracted, and global curve fitting of the kinetic data from six different analyte concentrations at a 1:1 monovalent binding model was performed using GatorOne software (version v2.10) to determine kinetic rate constants (kₒₙ and koff) and equilibrium dissociation constants (KD) of the analyzed antibodies.
(§2) The binding kinetics of CBD1033 Fab and its parental CBD1017ch Fab against human CD8αα homodimer, human CD8αβ heterodimer, and cynomolgus macaque CD8ααhomodimer were assessed following the same method in BLI evaluation of humanized Fab variants. For evaluating the binding kinetics against cynomolgus macaque CD8αβ heterodimer protein, the antigen protein was directly coupled onto amine-reactive biosensor tips (Gator Bio) following the manufacturer protocol. Briefly, the sensors were activated for 300 s with a mixture of 1-ethyl-3-(3-dimethylaminopropyl)carbodiimide hydrochloride (EDC) (ThermoFisher Scientific) and 10 mM N-Hydroxysulfosuccinimide sodium salt (sulfo-NHS) (Sigma-Aldrich) in water.

[2] = biological target: T2, human CD8αα homodimer, recombinant protein (Acro Biosystems) (human, UniProt P01732 22-182); assay: BLI kinetics, F(ab) on biotinylated CD8α (SA-XT sensor), 1:1 fit, 37 °C [CONT'ED]
T2 construct: also called CD8αα antigen; biotinylated CD8α recombinant protein (CDA-H82E3)
T2 sequence (P01732 22-182 limits assumed): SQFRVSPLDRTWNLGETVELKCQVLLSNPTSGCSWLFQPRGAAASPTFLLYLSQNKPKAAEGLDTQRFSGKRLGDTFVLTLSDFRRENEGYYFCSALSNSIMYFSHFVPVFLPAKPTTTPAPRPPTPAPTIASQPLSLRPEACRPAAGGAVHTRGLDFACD
Protocol: as §1

[3] = biological target: T3, cynomolgus macaque CD8αβ heterodimer, recombinant protein (cynomolgus macaque); assay: BLI kinetics, Fab, antigen amine-coupled to the sensor, 30 °C
T3 construct: In BLI coupled directly to amine-reactive sensor tips; also called cynomolgus CD8αβ heterodimer
Protocol: The binding kinetics of CBD1033 Fab and its parental CBD1017ch Fab against human CD8αα homodimer, human CD8αβ heterodimer, and cynomolgus macaque CD8ααhomodimer were assessed following the same method in BLI evaluation of humanized Fab variants. For evaluating the binding kinetics against cynomolgus macaque CD8αβ heterodimer protein, the antigen protein was directly coupled onto amine-reactive biosensor tips (Gator Bio) following the manufacturer protocol. Briefly, the sensors were activated for 300 s with a mixture of 1-ethyl-3-(3-dimethylaminopropyl)carbodiimide hydrochloride (EDC) (ThermoFisher Scientific) and 10 mM N-Hydroxysulfosuccinimide sodium salt (sulfo-NHS) (Sigma-Aldrich) in water. The cynomolgus macaque CD8αβ protein diluted to […] in 10 mM sodium acetate buffer, pH 6.0, was allowed to be covalently captured for 300 s to an approximate threshold of 5 nm, and the sensors were subsequently deactivated with 1 M ethanolamine (ETA) (Sigma-Aldrich) solution, pH 8.5, for 300 s. The sensors were then rinsed in the kinetic buffer for 600 s. The rinse step was repeated for an additional 120 s for baseline calculation prior to the measurements of the binding kinetics. The antibody fragment was diluted into kinetic buffer via 3-fold dilution at concentrations ranging from 1000 nM to 1.37 nM. As above, the antigen-captured sensors were incubated in the diluted solutions to capture the Fab fragments for 1200 s to record the association phase. Sensors were subsequently incubated in the kinetic buffer for 1200 s to record the dissociation phase. The shaking speed for all steps was 1000 rpm and the temperature of the performed assays were at 30° C. The kinetic parameters were determined with 1:1 monovalent (Langmuir) binding model using the previous method.

[4] = biological target: T1, cynomolgus macaque CD8αα homodimer, …; assay: BLI kinetics, Fab, 37 °C as printed in the table
Protocol: as §1, §2

[5] = biological target: human CD8αβ heterodimer, recombinant protein (human, UniProt P01732 22-182; P10966 22-170, limits assumed); assay: BLI kinetics, Fab, 37 °C
Sequence of human CD8αβ heterodimer, recombinant protein (P01732 22-182 limits assumed, chain 1 of 2): as the sequence (P01732 22-182 limits assumed) above
Sequence of human CD8αβ heterodimer, recombinant protein (P10966 22-170 limits assumed, chain 2 of 2): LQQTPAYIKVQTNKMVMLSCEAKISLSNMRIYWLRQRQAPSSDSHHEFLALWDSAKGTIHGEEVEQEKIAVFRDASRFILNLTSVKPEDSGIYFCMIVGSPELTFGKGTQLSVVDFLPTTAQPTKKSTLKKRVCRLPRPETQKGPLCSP
Protocol: as §1, §2

[6] = biological target: T2, human CD8αα homodimer, recombinant …; assay: BLI kinetics, Fab, 37 °C
Protocol: as §1, §2

[7] = biological target: T2, human CD8αα homodimer, recombinant …; assay: BLI kinetics, F(ab) on biotinylated CD8α (SA-XT sensor), 1:1 fit, 30 °C
Protocol: as §1

[8] = biological target: T2, human CD8αα homodimer, recombinant …; assay: BLI steady state, whole hIgG1-LALAPA antibody on CD8α-His (Ni-NTA sensor), 30 °C
Protocol: To assess affinity of whole antibodies, steady state analysis was used as the bivalent nature of both whole antibody and CD8α complicates kinetic analysis. 50 nM CD8α-His (that is, CD8α with a C-terminal oligohistidine tag; Acro) was immobilized on Ni-NTA sensor probes. Binding was analyzed with a three-fold antibody dilutions series: 60 nM, 20 nM, 6.67 nM, 2.22 nM, 0.74 nM, and 0.25 nM. The antigen-loaded sensors were incubated in the diluted solutions to capture the whole IgG antibody for 300 s to record the association phase. Sensors were incubated in the kinetic buffer for 900 s to record the dissociation phase. The spin speed was 1000 rpm for all steps except the antigen loading step which was 400 rpm to control density of the antigen. The temperature of the performed assays was at 30° C. during the association and dissociation phases. The sensor data were baseline subtracted and further analyzed in GatorOne software (version 2.10) to determine the equilibrium dissociation constants (KD) of the antibodies by fitting the signals of the steady states to the 1:1 binding model.

[9] = biological target: T4, human CD8 on cells (CD8-overexpressing HEK293T cells, SupT1, HPB-ALL, human T cells, transfected HEK293 of … (human, UniProt P01732 22-235)); assay: flow cytometry on CD8-overexpressing HEK293T cells, non-linear fit of normalized gMFI
T4 construct: whole, on cells; also called cell surface CD8
T4 sequence (P01732 22-235): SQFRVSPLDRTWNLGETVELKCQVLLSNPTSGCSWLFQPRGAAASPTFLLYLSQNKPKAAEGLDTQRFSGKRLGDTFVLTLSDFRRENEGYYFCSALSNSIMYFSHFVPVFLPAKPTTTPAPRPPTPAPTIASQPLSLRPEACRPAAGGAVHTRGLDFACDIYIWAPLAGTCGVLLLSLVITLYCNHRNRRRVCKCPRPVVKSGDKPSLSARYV
Protocol: To obtain the results shown in FIG. 3A, that determined EC₅₀ values for antigen-specific binding, CD8-overexpressing HEK293T cells were dissociated in Versine solution (PBS buffer at pH 7.4 supplemented with 0.5 mM EDTA), and 2×10⁵ total cells were transferred to a V-bottom 96 well culture plate (Corning). Cells were washed twice with Cell Staining buffer (#420201, Biolegend). Each anti-CD8α antibody with human IgG1 isotype and Fc-silencing mutations L234A, L235A and P329A was diluted in four-fold antibody titration series from 100 μg/mL to 6.1 ng/ml into Cell Staining buffer. eFluor 780 Fixable Viability dye (eBioscience) was also included during antibody solutions at a 1:4000 dilution. Cells were stained with each diluted antibody solution for 30 minutes on ice. Cells were then washed three times with Cell Staining buffer and primary antibody binding was detected by staining with anti-human Fc BV421 conjugate antibody (#410704, Biolegend) at 1:100 dilution for 30 minutes on ice. After staining with the secondary detection antibody, cells were washed three times with Cell Staining buffer, fixed in FluoroFix buffer (Biolegend) and kept at 4° C. in the dark until analysis. Flow cytometry analysis on each sample was performed on an Agilent NovoCyte flow cytometer. Flow cytometry data was analyzed by Flowjo 10 (Becton, Dickinson & Company) to measure the geometric median fluorescence intensity (gMFI) of the on-cell binding from each antibody. The gMFI values were normalized with the gMFI measured in the sample stained with only the secondary detection antibody and plotted against the concentration of the added antibodies. The binding curves were constructed using the Graphpad Prism software, and EC₅₀ values were determined by non-linear curve fitting.

[10] = biological target: T5, insulin (Sigma); assay: polyreactive ELISA, insulin coated, 100 nM antibody
T5 construct: Antigen of the polyreactivity ELISA
T5 sequence (P01308 25-54, chain 1 of 2): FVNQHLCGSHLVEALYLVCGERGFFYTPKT
T5 sequence (P01308 90-110, chain 2 of 2): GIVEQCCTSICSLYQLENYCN
Protocol: Insulin ([…]; Sigma) and dsDNA ([…]; Sigma) were coated onto 96-well high-binding ELISA microplates (Corning) at 50 μL per well overnight at 4° C. Plates were blocked with PBS with 0.5% BSA (blocking buffer) at room temperature (RT) for 1 h, followed by three washes with PBST (PBS with 0.1% Tween-20). 50 μL of 100 nM antibody in blocking buffer was added to each well and incubated at RT for 1 h, followed by six washes with 100 μL of PBS. 50 μL of diluted anti-human IgG-horseradish peroxidase (HRP) conjugate (Jackson ImmunoResearch) was added to the wells and incubated for 1 h followed by another six washes. Finally, 50 μL of 3, 3′, 5, 5′-Tetramethylbenzidine (TMB) substrate (Fisher Scientific) was added to each well to develop the detection signal. The reactions were stopped by adding 50 μL of 2 M sulfuric acid to each well. The absorbance was measured at 450 nm using a multimode microplate reader. Ustekinumab as the control antibody with low polyreactivity and bococizumab as a highly polyreactive antibody control were also included in the polyreactive ELISA assessment.
The first assessment tested for low non-specific binding to dsDNA and insulin by ELISA. […] Thus, by this standard, none of the tested antibodies were polyreactive.

[11] = biological target: T6, custom recombinant human CD8α mouse IgG2a Fc fusion protein (human; mouse, UniProt P01732 22-182, limits assumed); assay: BLI kinetics, biotin-conjugated F(ab') on SA-XT sensor, HuCD8a mouse Fc fusion as analyte, 37 °C
T6 construct: Custom protein; also called human CD8α mouse Fc fusion protein; not shown: mouse IgG2a Fc
T6 sequence (P01732 22-182 limits assumed): as the sequence (P01732 22-182 limits assumed) above
Protocol: The global fitting was performed with a 1:1 fitting model using GatorOne software as described below.
To measure the binding kinetics of the biotin-conjugated Fab molecule, streptavidin-immobilized SA-XT sensors (#160029, Gator Bio) were prehydrated in the kinetic buffer and loaded with […] biotinylated Fab sample CBD1033.37 or CBD1033.24 to a threshold response of 10 nm. […] The binder-loaded sensors were incubated in the diluted solutions to capture the CD8α protein for 1200 s to record the association phase. Sensors were finally incubated in the kinetic buffer for another 1200 s to record the dissociation phase. The spin speed for all steps was 1000 rpm. The temperature of the performed assays were at 37° C. during the association and dissociation. The sensor data were baseline subtracted, and global curve fitting of the kinetic data from six different analyte concentrations at a 1:1 monovalent binding model was performed using the GatorOne software (version v2.10) to determine the kinetic rate constants (kₒₙ and koff) and equilibrium dissociation constants (KD) of the analyzed binder.

B1: CBD1017ch Fab (chimeric CT8 Fab) (Fab, V domains shown)
VH: EVQLQQSGPELVKPGASVKISCKASRYTFTDYNLHWVKLSHEKSLEWIGFIYPYNGGTGYNQKFKNKAKLTVDYSSSTAYMELRSLTSVDAAVYYCARDHRYNEGVSFDYWGQGTTLTVSS
VL: NIVLTQSPASLAVSLGQRATISCRASESVDGFGNSFMNWYQQKPGQSPKLLIYLASNLESGVPARFSGSGSRTDFTLTIDPVEADDAATYYCQQNNEDPYTFGGGTKLEIK
notes: Chimeric: variable regions of mouse CT8 (clone RPA-T8) with human constant parts; also called parental CBD1017ch Fab
With B1 the Kd [1] was 2.26 nM, the koff [1] was 6.93e-05 s⁻¹ and the kon [1] was 30700 M⁻¹ s⁻¹. The Kd [2] was 1.08 nM, the koff [2] was 7.53e-05 s⁻¹ and the kon [2] was 69500 M⁻¹ s⁻¹. The Kd [3] was 24.8 nM, the koff [3] was 0.000503 s⁻¹ and the kon [3] was 20300 M⁻¹ s⁻¹. It also gave a Kd [4] of 2.26 nM, a koff [4] of 6.93e-05 s⁻¹ and a kon [4] of 30700 M⁻¹ s⁻¹. The Kd [5] was 5.75 nM, the koff [5] was 0.000179 s⁻¹ and the kon [5] was 31200 M⁻¹ s⁻¹. The Kd [6] was 1.08 nM, the koff [6] was 7.53e-05 s⁻¹ and the kon [6] was 69500 M⁻¹ s⁻¹. It also gave a Kd [7] of 0.814 nM, a koff [7] of 5.67e-05 s⁻¹ and a kon [7] of 69700 M⁻¹ s⁻¹.

B2: CBD1032 whole antibody, Fc-silenced human IgG1 (LALAPA) (antibody, V domains shown)
VH: QVQLVQSGAEVKKPGASVKVSCKASRYTFTDYNLHWVRQAPGQGLEWMGFIYPYNGGTGYAQKFQGRVTMTRDTSTSTVYMELSSLRSEDTAVYYCARDHRYNEGVSFDYWGQGTTVTVSS
VL: DIQMTQSPSSLSASVGDRVTITCRASESVDGFGNSFMNWYQQKPGKAPKLLIYLASNLESGVPSRFSGSGSGTDFTLTISSLQPEDFATYYCQQNNEDPYTFGQGTKLEIKR
For B2, the Kd [8] was 1.4 nM, the EC50 [9] was 2.35 nM and the “polyreactivity ELISA score” value [10] was 1.

B3: maleimide-PEG-biotin conjugated CBD1033.24 F(ab') (IgG4-derived) (Fab, V domains shown)
VH: B2 VH with R72V, V79A
VL: B2 VL with M4L, V19A, L82V
modifications: maleimide-PEG11-biotin on CH C227 (sequential numbering, corresponding to C239 in Kabat numbering)
notes: Loaded on streptavidin sensors through the biotin; also called biotinylated Fab sample CBD1033.24
Binder B3 has a Kd [11] of 4.01 nM, a koff [11] of 0.00013 s⁻¹ and a kon [11] of 32400 M⁻¹ s⁻¹.

B4: CBD1034 whole antibody, Fc-silenced human IgG1 (LALAPA) (antibody, V domains shown)
VH: B2 VH with R72V, V79A
VL: B2 VL with M4L, V19A, G72R, L82V
B4 was tested, and the Kd [8] was 4.63 nM, the EC50 [9] was 2.71 nM and the “polyreactivity ELISA score” value [10] was 1.

B5: CBD1037-hIgG1-LALAPA (antibody, V domains shown)
VH: B2 VH with R72V, T74Y, V79A
VL: B2 VL with M4L, V19A, L82V
notes: also called h1017-H4/L2 whole antibody
In the case of B5, the Kd [8] is reported as 2.32 nM and the EC50 [9] is reported as 2.42 nM.

B6: CBD1038-hIgG1-LALAPA (antibody, V domains shown)
VH: B2 VH with R72V, T74Y, V79A
VL: B2 VL with M4L, V19A, G72R, L82V
notes: also called h1017-H4/L3 whole antibody
For B6, the Kd [8] was 4.74 nM and the EC50 [9] was 2.57 nM.

Reference: patent publication US20250195685A1 (CAPSTAN THERAPEUTICS, published 2025)
